The results in this text go back to US8415106B2, “Cell-based screen for agents useful for reducing neuronal demyelination or promoting neuronal remyelination” (Myelin Repair Foundation, Inc., priority 2005, dated 2013).

What all share (type): in vivo
In data set [1] the test system is mice with EAE. Kind of data set: MOG 35-55-induced EAE, CNS delivery of INF-γ at EAE onset (PERK+/+ double or PERK+/− triple mice). The conditions noted are these: for Mean of maximum clinical score (mean ± S.D.): 0-5 point scale; for Mean of maximum clinical score (mean ± S.D.) / Day of onset of disease (PID: postimmunization day): n = 25.
Data set [2] concerns myelinating oligodendrocytes in the CNS. The source says: To study the effect of INF-γ on the myelination of oligodendrocytes during mouse development, transgenic mice that allow for temporally regulated delivery of IFN-γ to the CNS using the tetracycline (tet) controllable system (Lin, et al. (2004) J. Neurosci. 24: 10074-10083) were generated. To drive tTA expression in astrocytes, the transcriptional regulatory region of the glial fibrillary acidic protein (GFAP) gene was chosen (Brenner, et al. (1994) J. Neurosci. 14: 1030-1037). GFAP/tTA mice were mated with TRE/IFN-γ mice to produce animals hemizygous for both transgenes. When these mice are maintained on doxycycline (DOX+), expression of the IFN-γ transgene is repressed (FIG. 10A); when the double transgenic mice are released from doxycycline (DOX−) INF-γ is expressed. For the purpose of these experiments, mice received doxycycline up to day 14 of development (E14), at which time the experimental animals (DOX−) stopped receiving doxycycline, while the control animals (DOX+) were continuously fed the dug. The mRNA for IFN-γ could be detected in the DOX− mice as early as 10 days after birth (data not shown).
Brain and spinal cord tissue were analyzed using immunohistochemical methods as follows. Anesthetized mice were perfused through the left cardiac ventricle with 4% paraformaldehyde in 0.1M PBS. The half-saggital brains and transcervical spinal cord were removed, postfixed with paraformaldehyde, cryopreserved in 30% sucrose, embedded in OCT and frozen on dry ice. Frozen sections were cut in a cryostat at a thickness of 10 μm. Coronal sections at the fornix region of the corpus callosum corresponding to. Sidman sections 241-251 were selected for use, and all comparative analyses were restricted to midline corpus callosum (Sidman, et al. (1971) Atlas of the Mouse Brain and Spinal Cord (Harvard Univ. Press, Cambridge, Mass.). For immunohistochemistry, frozen sections were treated with −20° C. acetone, blocked with PBS containing 10% NGS and 0.1% Triton X-100 and incubated overnight with the primary antibody diluted in blocking solution. Appropriate fluorochrome- or enzyme-labeled secondary antibodies (Vector Laboratories, Burlingame, Calif.) were used for detection. An antibody against CC1 (APC7, 1:50; EMD Biosciences, Inc., La Jolla, Calif.) was used as a marker for mature oligodendrocytes. Antibody against MBP (1:1000; Sternberger Monoclonals, Lutherville, Mass.) was used to verify the degree of myelination. Antibody against active-caspase-3 (1:50, Cell signaling Technology, Beverly, Mass.) was used as a marker for apoptotic cells. Fluorescent stained sections were mounted with Vectashield mounting medium with DAPI (Vector Laboratories) and visualized with a Zeiss Axioplan fluorescence microscope. Images were captured using a Photometrics PXL CCD camera connected to an Apple Macintosh computer using the Open Lab software suite. Immunopositive cells were quantified by counting positive cells within the median of the corpus callosum, confined to an area of 0.04 mm^2. Only those cells with nuclei observable by DAPI staining were counted. Each MBP immunostaining slide was scored on a scale of zero to four. A score of zero indicates complete demyelination, and a score of four indicates normal myelination in the corpus callosum of adult mice. […]

The test system of data set [3] is mice with EAE. The data set is described as follows: MOG35-55-induced EAE, CNS delivery of INF-γ at the recovery stage (doxycycline withdrawn at PID7). The conditions noted are these: DOX− mice. An excerpt: Double transgenic mice that allow for temporally regulated delivery of INF-γ to the CNS (Lin et al., J Neurosci 24:10074-10083 (2004)) were used to assess the role of INF-γ in the pathogenesis of EAE. GFAP/tTA; TRE/IFN-γ double transgenic mice, as described in Example 1 were used to determine the effect of INF-γ on the demyelination caused by EAE. All mice were fed doxycycline from the day of conception to repress the expression of INF-γ, and were immunized with myelin oligodendrocyte protein (MOG35-55) to induce EAE. At day 7 postimmunization (PID7), doxycycline was withdrawn from the experimental group (PID7 DOX−).
The level of INF-γ was determined in the control (DOX+) and the PID7 DOX− mice using an ELISA immunoassay as described in Example 1, and the severity of the disease was assessed as a function of a clinical score. Clinical severity scores were recorded daily according to a 0-5 point scale, where 0=healthy, 1=flaccid tail, 2=ataxia and/or paresis of hind limbs, 3=paralysis of hind limbs and/or paresis of forelimbs, 4=tetraparalysis, and 5=moribund or dead.
The spinal cord from DOX+ and DOX− animals with EAE was immunostained for MBP, and the remyelination of axons was evaluated. The number of oligodendrocytes was determined in the spine from DOX+ and DOX− mice as the number of CC1 positive cells. Axonal damage was evaluated by immunostaining of non-phosphorylated neurofilament-H. Antibodies to non-phosphorylated neurofilament-H Were SMI32 diluted to 1:1000 and obtained from Sternberger Monoclonals.

Where “and” joins values, the source holds several entries; their conditions need not be identical. Identical values can stand only once. Like-named read-outs stand apart in the source and are kept apart here.

B1: IFN-γ: pleotropic cytokine secreted by activated T lymphocytes and natural killer cells; recombinant rat IFN-γ added to cultures or transgenically expressed in mouse CNS (protein, UniProt P01581 23-156, looked up)
Interferon gamma: QGTLIESLESLKNYFNSSSMDAMEGKSLLLDIWRNWQKDGNTKILESQIISFYLRLFEVLKDNQAISNNISVIESHLITNFFSNSKAKKDAFMSIAKFEVNNPQIQHKAVNELIRVIHQLSPESSLRKRKRSRC
On to B1, for which, in the data set on mice with EAE [1] (DOX− double mice (PERK+/+)), the Incidence of death was 0/25, the “Mean of maximum clinical score (mean ± S.D.)” value was found to be 1.63 ± 0.51 and the “Day of onset of disease (PID: postimmunization day)” value was determined as 14.7 ± 1.4. In addition, the “Incidence of hind limb paralysis” value with mice with EAE [1] (DOX− double mice (PERK+/+), listed as INF-γ) was 2 of 25 and 2/25. Moreover, the “MBP mRNA level in the spinal cord versus age-matched naive mice” value in the data set on mice with EAE [1] (DOX− double mice, PID17, DOX+ double mice decreased by 30%) is “not significantly decreased”. Moreover, in the data set on mice with EAE [1] (DOX− triple mice (PERK+/−)), the Incidence of death is 3/25, the “Incidence of hind limb paralysis” value was 18/25, the “Mean of maximum clinical score (mean ± S.D.)” value came to 2.71 ± 1.11 and the “Day of onset of disease (PID: postimmunization day)” value is 13.6 ± 0.8. In addition, the “unmyelinated axons in the spinal cord” value in data set [2] (14-day-old, IFN-γ expressed, PERK+/− background, doxycycline-maintained 9.8%±6.1%) is 81%±14.9%. In addition, the “decrease of oligodendrocyte numbers in the spinal cord” value in data set [2] (14-day-old, IFN-γ expressing, PERK+/− background) is “more than 50%”. Also, the “unmyelinated axons in the spinal cord” value in data set [2] (14-day-old, released from doxycycline at E14, wild-type background) is 30%±12.9%. Also, the “mice that died by post natal day (PND) 27” value in data set [2] (double transgenic, released from doxycycline at E14, PERK+/− background) was “more than 90%”. Also, the “TUNEL positive oligodendrocytes in the cervical spinal cord, PERK+/− versus wild-type background” value in data set [2] (released from doxycycline at E 14) amounted to 2.5 times. In addition, in the data set with mice with EAE [3] (PID17, 0-5 point scale, DOX+ 2.66±0.80), the “mean maximum clinical score” value is given as 2.69±0.69. Besides, the “mice that developed hind limb paralysis” value in the data set on mice with EAE [3] (PID17, control twenty of 25) is on record as 24 of 30. Besides, the “mice with hind limb paralysis that continued to suffer from the paralysis” value in the data set on mice with EAE [3] (PID50) is listed as 12/24. Further, in the data set with mice with EAE [3] (PID 50, control DOX+ less than 1), the clinical score was roughly 2.
